Test: soluble on expression in E. coli; label from the status in PepcDB or PDB records

Sequence	soluble on expression in E. coli
MGTSVTPNIFDFLIKIDPFDKLPEPVVESIANSVKVKYLVRGETIGFSALCDQRYLYIIRTGAIEQRTPNGELRARLGQDDQFGFTFLDPLENAEDGYQAEAIEDSLLYLIPHSELKLVSEEHPEFADYFAAQANVRLSSAVKYVCRKEEKGLFFRTVGEIASENIAIVDVNDSIRSVAQTMCGKQRSSCAVVMKEGEIIGLVTDRDMTKSVVAQDMDTNQPIADVMTPNPVLIEDDAKVIQAISLMLQYNIRCLPVVHGKQVKGLLTTTHLVHNHRTQSLFLIEKIKYASSLNALAALKEERQTIFQALVESGVSAEIQGRVMSMIMDAFTRRIIQLNEELLGPPPCDYAWLVAGSHARNEVHMLSDQDSAIVLSDDATEEHKLYFTHLAMRVCNGLAACGYPLCDGKYMAASPKWCQPIRRWKEYYQKWVASPEYNKLLSISVFLEVRAIHGNREFVDQIQQHLHDCIQKSPSFIPALVRDAIDTQPPLGIFNNLVLEKGGENSNTLNIKKYALNLIIDLARIFSLAAGGSLTGTEERFRYAAQHGTLSKDSVENIIGAYRFITQVRFRHQLNAILAGTTPDNHIAPDDFSSFERKHLKDAFKIISELQDVAKLKFVKGA	not soluble
MGVEIQSPQEQSSYTVEQLVALNPFNPEILPDLENYVNVTSQTYSLEVNLCLLRLYQFEPERMNTHIVARILVKALMAMPTPDFSLCLFLIPERVQMEEQFKSLIVLSHYLETGRFQQFWDEAAKNRHILEAVPGFEQAIQAYASHLLSLSYQKVPRSVLAEAVNMDGASLDKFIEQQVTNSGWIVEKEGGSIVLPQNEFNHPELKKNTGENVPLEHIARIFPILG	not soluble
MGVITDDVTIAQQALTHYDVSDNASLRLLNLSENATYLVEDGEHQSILRVHRQDYHQPHEIESELDWLAALRTDSDVTVPTVVPARDGRRVVTVDPADSDAVPRHVVHFEMVGGAEPDEESLTLDDFQTLGRITASLHEHSQRWTRPAGFGRFSWDWEHCLGDTPRWGRWQDAEGVGASETALLTRAQDLLHRKLEEYGSGPDRYGLIHADLRLANLLVDSSTPQRTITVIDFDDCGFGWYFYDFGTAVSFIEHDPRLGEWQESWVAGYRSRRELPAADEAMLPSFVFLRRLLLLAWMGSHTHSRESATKAISYAAGSCALAERYLSSDGLRLT	not soluble
MGVVLIDGSTVRSFVDDEEQFKKSVDERFAALDLNKDGVLSRSELRKAFESMRLLESHFGVDVVTPQDELTNLYDSIFEKFDTDQSGSVDLEEFRSEMKKIVLAIADGLGSCPITMVLDDDDDNFLKKAADLEASKLEKASS	soluble
MGWTCERVELLKKFWSEGLSASQIAAQLGGVSRNAVIGKVHRLKLPGRGKTAQGGGRVQKALVGVSSSPVRMRRTPSTVLPTNTASCSVGATALKVDVVVEDVTEVDLPEKSNVVVPISRQLNLLQLSENTCRWPVGDPLSPDFHFCGADSGENSPYCAFHAKIAFQPISERRRIRILEHHHHHH	not soluble
MHENKYLTIYHDLISRIRRGEWKAYDKLPSEHELAARYETSRETIRKALHLLSEHGYIQKMKGKGSIVLDVGKYDFPVSGLVSFKELAQTMKQPVRTIVHELAIIKPDRELRQHLRASSKDEVWKVVRVREIGGERIILDKDFFLKKHVPLLTKEICEDSIYEYLETKLHLPISFAKKEISVDEATDEDRRYLDLHGDDRVVVVKNYVYLSDAALFQYTESRHRLDKFRFVDFARRK	not soluble
MHFETVIGLEVHVELKTDSKMFSPSPAHFGAEPNSNTNVIDLAYPGVLPVVNKRAVDWAMRAAMALNMEIATESKFDRKNYFYPDNPKAYQISQFDQPIGENGYIDIEVDGETKRIGITRLHMEEDAGKSTHKGEYSLVDLNRQGTPLIEIVSEPDIRSPKEAYAYLEKLRSIIQYTGVSDVKMEEGSLRCDANISLRPYGQEKFGTKAELKNLNSFNYVRKGLEYEEKRQEEELLNGGEIGQETRRFDESTGKTILMRVKEGSDDYRYFPEPDIVPLYIDDAWKERVRQTIPELPDERKAKYVNELGLPAYDAHVLTLTKEMSDFFESTIEHGADVKLTSNWLMGGVNEYLNKNQVELLDTKLTPENLAGMIKLIEDGTMSSKIAKKVFPELAAKGGNAKQIMEDNGLVQISDEATLLKFVNEALDNNEQSVEDYKNGKGKAMGFLVGQIMKASKGQANPQLVNQLLKQELDKRMAGDPLEHHHHHH	not soluble
MHFKDLGLHDYTLKNLMYENNCCKFYDAVDENNISYVLKFVPSDVTSEGDTFPFVDRFQVKEGVFLVYSSNDFGKEGTDYFTYTGSGGNEVHISGTSSEAGIKPQFIETCHPKHLKRGTKEQEDINSSTSKKSAVINNFSGEKTPNPRPQSSNISERETYVGILNVKCKNKNSSKIRSEKLVSSVIETKHTPGLASILSKEGTTYPNNADGKHISIVNPSSKIYHSSHKQIVKTPIPKSGLSPIERCPFNGQNIKCYSPRPLDHESPQRDFNNNFQLRILKSSVLQRRQSTQNS	soluble
MHFYKYGVLINQLSDSFEWRVAFLDGSVSDHCCITVPSEKFNFPPTPGATVKAKFEHANSFLPSLVAQCGSFEWFRDVTVVNSKVVIFAIVHFSNECLERDPFKINGMDYSIIENENTDFQKIVLPTRVLQTSITSRSNLQNTDTPFIYRIGVCWEPISFENGVTVNWRYYADFPITPIFELYYRETTLPYIAESMVYGVLEGVVIAENDHGALFWTPKMGCAILPSTSLDTPMPSLGSVHVILVKRCIPENSFGFSCSYELLSSFRSTEWPNLKVITDQITRKVYIEANASCRSMMENQDFPSMNVPHIGKVFRGLQQYRDKLSAGHLYDFRMEFQKEEGSFVPTIVDLCLEEDEMVDCRVVYISNETSTYFAVLDPSSNSFDRFKQSIDYIAIPFRVLFCANGVHVKNEELLLNSYKVRVRVPRNRHDVVNAIHVEHVIQSPKDPAYFITNGSVWLRTTVKFQNASRYELLCPLLEQKIIDVNGVTAAMSLTQEFTVHAQFVLMERNVPVFVVRQLASTVREHPRTTNYPSRSLNLSYEVSGALARTNPNGQLSAADNNIVLINDSISLDHNLPDTGEYPTILNESSFERQLLFDNQSIADSASTSGDFILTESVYESSSAASTCTVIDRNDARFSALNDDSNILISESWLDSTNQHSETTMDTPEIITESFYESTHDQASSRASTVDRLASDVDKISIGRPDYSPPPRRRIFGYSTPGDRVRPRNSYGSSSSGSLNGRPKRRAPYGFRQIRNITPHNVLLRDIIYNNINNRKMFVEQNKNAILKCWNRLPLAQVTRTTKLSVTVIAVESIKFPPSFDETCIKGLVRFVALGVGVDINLRNMSIVVPIGGKFNNLPKSFQLGETYRVYHFSSKVDRICRLGGFSFGLKGGMRNEEPPDRNNWFSDPQTVNGRDGQSYLRCTVNAERPANAEIESDFFELWSTTALPGFIIVEKVPQLMKHLNEELLDPDVHSRFTYSCVIEPLAGGPVEASILKDLKYDEEFCIFWRLVVEFSDTVPLPRLIIKSKIYVPPPPVVPVYVTPFTVNDFGCWETHRINSILHQARIDRLRAAGHMRVKMLDGPDMKPEIEIRKVDVNTRREKMFTAFDALLEKLPQLHSEGILEYVLEDDLREKIEYLLPMTDDNHKFQFRARNDSLTIGLNYLTDMLTKGKVYKMLYEKQEYVPLLKVLSDCIGLNTTYIKKTDAVTMMLQFMYRNELHTYM	not soluble
MHGESPIKRRESRKIWVGSVPVGGDAPIAVQSMTNSDTNDVAATVAQINRLEAAGVDIVRISVPDMDAAEAFGRIKQLVKVPLVADIHFDYRIALRVAELGVDCLRINPGNIGREDRVRAVVDAARDRGIPIRIGVNAGSLEKDLQKKYGEPTPEALVESALRHVEHLERLNFKDFKVSVKASDVFMAVAAYRLLAKQIVQPLHLGITEAGGLRSGTVKSAVGLGMLLAEGIGDTIRISLAADPVEEVKVGYDILKSLRLRSRGINFIACPSCSRQNFDVVKTMNELEGRLEDLLVPLDVAVIGCVVNGPGEAKEAHIGLTGGTPNLIYIDGKPAQKLTNDNLVDELERLIREKAAEKTAADASVIVRGLEHHHHHH	not soluble
MHGTCLSGLYPEPFTHNSHDYPHFNIYISFGGPKYCITALNTYVIPLLHHILTTQFIHTYFNIPTKSPPKSPKHKNYLSFNFTK	soluble
MHGTCLSGLYPVPFTHNSHDYPHFNIYISFGGPKYCITALNTYVTPLLHRILTTQFIYTYANITKKSPLKSPKHKNILFFNHNT	soluble
